We go through four substances from paper doi:10.1101/2024.11.26.625568.

Experiment [1] concerns the target dynein (UniProt Q14204).
The target of experiment [2] is dynein (UniProt Q14204). The source holds these as a separate data set.
Experiment [3] deals with dynein (UniProt Q14204). The source holds these as a separate data set.

Bounds are passed on as bounds.

For “Full-length NuMA (from UniProt Q14980 1-2115) (natural protein)”, in the experiment with dynein [1], the frequency of processive runs of DDN complexes, against NuMA 1-705 under the same conditions (fold less frequent) is 10.

As for “NuMA FL S1969D (from UniProt Q14980 1-2115) (natural protein)”, in the experiment with dynein [2], the run frequency of DDN complexes, against wild-type NuMA FL (fold increase) is less than 4.

Consider “NuMA 1-1699 (from UniProt Q14980 1-1699) (domain or fragment)”, for which the run frequency of DDN complexes in single-molecule motility assays, against the shorter NuMA fragments with dynein [3] is 5 fold lower.

In the experiment with dynein [2], “NuMA FL T2055D (from UniProt Q14980 1-2115) (natural protein)” gave a run frequency of DDN complexes, against wild-type NuMA FL (fold increase) of less than 4.
